Experimental findings from the supplement of paper PMC12042874 are described below.

± gives the uncertainty stated by the source.

The nature of the series: amyloid nucleation score (Sup35N fusion, yeast selection) (log enrichment); library NNK3; higher = more nucleation; inactive = no reads after selection. In outline:
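In psi-negative yeast, Sup35N fusions carrying peptides of 20 random codons were induced with 100 μM copper sulfate for 24 hours. The cells then grew 7 days at 30°C on medium lacking adenine and uracil, and plasmid inserts from input and output were Illumina-sequenced, excluding sequences with under 100 input reads. Nucleation score is the DiMSum log enrichment of output over input reads, centred on the mode score of non-aggregating sequences.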
In the case of IEVYYSNRSWCLRQIRGCTG, the amyloid nucleation score entry was “inactive”.

For IFLKNCLLWKTAGSFMNSIA, the amyloid nucleation score entry was “inactive”.

Substance IFNWPSQTVLHIYKSAHVNM displayed an amyloid nucleation score of 2.35 ± 0.066. IFPFFVSL: the amyloid nucleation score result was “inactive”.

In the case of IFRSHMQSLGK, the amyloid nucleation score result was “inactive”. For IFSRLGFVCLIMFTC, the amyloid nucleation score entry was “inactive”.

As to IFTLMINCLE, the amyloid nucleation score was found to be 0.809 ± 0.1. The substance IFVILW returned an amyloid nucleation score of 0.101 ± 0.6. IFVVYFGISTIRNT returned an amyloid nucleation score of 1.32 ± 0.097. The same measure for IGAIYACRLFVRGLASFLTL: “inactive”; for IGDNCCIWMLDVHSVTLVSE: 0.329 ± 0.2; for IGEILIVFALTRNTVVGYGF: “inactive”. The same measure for IGFRWY: “inactive”; for IGGRTDNSELTCTRGMRFLC: “inactive”; for IGINVRALRRGLTLVPL: “inactive”. Then IGISSGVTKICYGGTFKHMP, with “inactive”. For the substance IGNLLLGCRPSQNSLRAHTS, the amyloid nucleation score result was “inactive”. For the substance IGRMKRSIGRCDPVWWNWVQ, the amyloid nucleation score result is “inactive”. Regarding IGRTLSHSATRLVCTDPFRR, the amyloid nucleation score result is “inactive”. For IGSSRIDFSSRNYGV, the amyloid nucleation score amounted to 0.576 ± 0.12. Then IHDDSKNGK, with 0.57 ± 0.16; and IHHQC, with “inactive”; and IHLVFREDITLVWVWNWIHV, with “inactive”.

In the case of IHTGKMLTYCFKSNLSVRTS, the amyloid nucleation score result was “inactive”. The same measure for IIELYT: “inactive”; for IIGPGYFFYLKLYA: 0.549 ± 0.27; for IIISSFSDWCYFGRDDSCRM: -0.36 ± 0.63.

IILVSYVREMKHSSSSFVLS had an amyloid nucleation score of 2.04 ± 0.098.

Regarding IIMGV, the amyloid nucleation score entry is “inactive”. Then IIMSLLIALP, with 0.653 ± 0.18.

As for IIPYCRS, the amyloid nucleation score result is “inactive”. Take IIPYHEFIVGALVSHRWCQD: the amyloid nucleation score entry was “inactive”.

Regarding IIVSRWLWWDIGVSRNW, the amyloid nucleation score entry is “inactive”.

Regarding IIWLWGNNGKYTMGFLGIGG, the amyloid nucleation score result was “inactive”.

For IIYFRVISIGYSWGIVRDRF, the amyloid nucleation score entry was “inactive”.

For IKAPRFYAPFLLIVSQWVST, the amyloid nucleation score result is “inactive”. Turning to IKDIFACSMCFTTKSNAAHY, the amyloid nucleation score was 3 ± 0.053. The substance IKFIERWYQFTYVHCLQVMG gave an amyloid nucleation score of -0.247 ± 0.64. Regarding IKKHCV, the amyloid nucleation score entry was “inactive”. As to IKRGRTVQKVFCMWVVSYPR, the amyloid nucleation score result was “inactive”. In the case of IKVISLEAMKTYCF, the amyloid nucleation score result is “inactive”. For the substance ILDAEVFGLISGFMSMHCNA, the amyloid nucleation score entry was “inactive”. The same measure for ILENVA: “inactive”; for ILEVGRQCMDGFCSKFNGEY: “inactive”; for ILFRYFISGMVVWGDNMENE: “inactive”.

Regarding ILFVAGIETFSALSFRWTGV, the amyloid nucleation score entry is “inactive”. The same measure for ILINSRFMRFVFRAGHRV: “inactive”; for ILISMEPPLFRDTLKNTGNC: “inactive”; for ILLVWNSMLYYTLDTCVNCC: “inactive”. Take ILQKSDVSII: the amyloid nucleation score entry was “inactive”. Regarding ILRLSPTFGRQSYSVKVGLK, the amyloid nucleation score entry is “inactive”. Then ILRNMDGRRNSVVRDVVRVK, with “inactive”. Then ILTNTIRGKVDSLRLFKTSW, with “inactive”. Then ILTWRRFVFFLDWVDFTSQG, with “inactive”; and ILVDWFDCDQCKQTFCPGLV, with “inactive”; and ILYGKVTKKRGSKALSVRVM, with “inactive”. For ILYLITFAELCWKSRHWHLG, the amyloid nucleation score result was “inactive”. Then IMSRCISTHLG, with “inactive”.

As for INFCIINNTMV, the amyloid nucleation score turned out to be 1.75 ± 0.071. Then INKSWGVFP, with 0.687 ± 0.18; and INLNYDLKFGYVYHMLFT, with “inactive”; and INNASRRPCNMHVDVYRLLR, with “inactive”.

For the substance INPRSYADLYYIRFNHWWLL, the amyloid nucleation score entry was “inactive”. As to INQRLYEPFGRWVWTRYIAR, the amyloid nucleation score entry is “inactive”.

INWFGVRYRYDSSNYFMYQL showed an amyloid nucleation score of 0.986 ± 0.21. As for INWTRLRSRSEVWDTGRVWT, the amyloid nucleation score result was “inactive”.

In the case of INYCALARFLMNECLCPICT, the amyloid nucleation score entry was “inactive”. The same measure for IPCMG: “inactive”. Substance IPRWKFN gave an amyloid nucleation score of -0.57 ± 1.1. Then IPTSQAEFCCFSGAKHFQIV, with “inactive”. Then IPVLLPSMCINNKFMVSSWN, with 1.39 ± 0.1. The same measure for IPYSTHRINSILISLSWFCV: 0.691 ± 0.2; for IQKLSFYTVCFMYDWLLTFK: “inactive”. Turning to IQLAYIPEMALPTSWARVSG, the amyloid nucleation score result is “inactive”. Then IQLKDKNGDL, with “inactive”; and IQNIVRLDSVVSMVFGRLVI, with “inactive”; and IQQGKVYKGTLLLTAYMTSE, with 1.11 ± 0.096. Then IRCNRYVSL, with “inactive”. On to IRGEFLQQPFIVDRNHVRWL, for which the amyloid nucleation score entry was “inactive”. For the substance IRGSHGRWYSTHNCLTCDME, the amyloid nucleation score result is “inactive”. Then IRGVECNRLGIYLLCVTHSM, with -0.624 ± 0.8; and IRLSQNWGSYVCSNTLNSER, with “inactive”. With IRLVPWFW, the amyloid nucleation score result is “inactive”. As for IRMYNSSERFYSPDKRHVPK, the amyloid nucleation score entry is “inactive”.

Regarding IRNIRFVFLILIDWSSRNSV, the amyloid nucleation score result is “inactive”. The same measure for IRRLSSVCMGCSWYL: “inactive”; for IRRSLAR: “inactive”. Regarding IRSILW, the amyloid nucleation score entry was “inactive”. Regarding IRSPWTSRAVCGGADV, the amyloid nucleation score result is “inactive”. As to IRSYAF, the amyloid nucleation score result is “inactive”. Regarding IRTNAGSLYFYWGTLFRISH, the amyloid nucleation score result was “inactive”. The same measure for IRTTSPHHDSLSNEGVIDML: “inactive”. Then IRVTRIRAKVTLTTNVMWVP, with 0.463 ± 0.29; and IRYLYLV, with “inactive”.

Consider ISCALHYDSVRKRYVVSGQL, for which the amyloid nucleation score result is “inactive”. For ISDRFQAESCSRCSLVSSMF, the amyloid nucleation score entry is “inactive”. The same measure for ISEVESWPFHCGYGNI: 0.467 ± 0.28; for ISILDLSSTF: “inactive”. Then ISINYVPDMFDLRDYFTVIL, with “inactive”; and ISIPLLIMLPELGTASMVNG, with “inactive”; and ISKSHGYLYSNWKTCFSELS, with “inactive”.

For ISLYNRNIYCRLTFMLRVIR, the amyloid nucleation score entry was “inactive”.

As for ISMHPERQVMMRLPCRMCCL, the amyloid nucleation score entry was “inactive”.

For ISMSNHWLLLVICNDEWDLP, the amyloid nucleation score was -0.06 ± 0.7.

Turning to ISPAESFPSSPERIHIVD, the amyloid nucleation score is -0.789 ± 0.9. ISRLLPPWNNRHIFSFVYLS: the amyloid nucleation score entry was “inactive”. Then ISRNRQRSVIPGTTKLCMWV, with “inactive”; and ISRSGNLLGYKDLLVATKSG, with “inactive”.

On to ISSAYPRNICRVCGPRTR, for which the amyloid nucleation score entry was “inactive”. Take ISTFVLNDAMLRRWET: the amyloid nucleation score result was “inactive”.

In the case of ISVIYLS, the amyloid nucleation score result was “inactive”. The substance ISYTTSNYITLVYKLTNRAY showed an amyloid nucleation score of 0.911 ± 0.13.

For ITGFLFRVVW, the amyloid nucleation score came out at 0.829 ± 0.13. On to ITILT, for which the amyloid nucleation score result was “inactive”. Then ITLGACS, with “inactive”; and ITLLCLFNATL, with 1.98 ± 0.085; and ITSVTLITNKSKSGIGKVGS, with “inactive”. The same measure for ITWSFTVDMDALCCGPWNVR: 3.18 ± 0.078. Then ITWTRGDVGQTHNSAMLSHT, with “inactive”; and ITYSMLVVVQNLA, with 1.75 ± 0.1. As to IVADAAWNAIGVSGMDSTGT, the amyloid nucleation score entry is “inactive”. Then IVALQRSFSNNT, with “inactive”; and IVFWRSFHKNA, with “inactive”; and IVGDGDGQTCCVSRSLCGMV, with “inactive”. IVGIKVDIYNTSGCS gave an amyloid nucleation score of 1.7 ± 0.12. Then IVGLDWKNATVRDCRRNFIN, with “inactive”. Then IVHNYFSFCHYNRGRVGLFI, with 2.64 ± 0.074; and IVKCLYVVCV, with “inactive”. The same measure for IVKVLFNSFGGWWYAHGLYV: “inactive”; for IVLSNVRVGIACGDLC: 0.182 ± 0.44; for IVLTFYIYRNSYCSAV: 0.89 ± 0.092. Take IVNRIVVSSRRFSLVHWGWA: the amyloid nucleation score was found to be 1.73 ± 0.11.

IVQLHDIVDS registered an amyloid nucleation score of -0.168 ± 0.9.
